Target: T1, radiolabeled agitoxin2 (D20C conjugated with tritiated N-ethylmaleimide) (Leiurus quinquestriatus hebraeus, UniProt P46111 1-38)
T1 construct: mature
Assay: filter binding assay with tritiated agitoxin2

B1: wild type kcsa K+ channel from Streptomyces lividans (other)
chain: MPPMLSGLLARLVKLLLGRHGSALHWRAAGAATVLLVIVLLAGSYLAVLAERGAPGAQLITYPRALWWSVETATTVGYGDLYPVTLWGRLVAVVVMVAGITSFGLVTAALATWFVGREQERRGHFVRHSEKAAEEAYTRTTRALHERFDRLERMLDDN
B1: no binding.

Source: US20050272093A1 (ROCKEFELLER UNIVERSITY, published 2005)
